Patent CN114316037A

Substrate: O型口蹄疫病毒灭活抗原 (Foot-and-mouth disease virus, serotype O (strain not stated))

B1: 单克隆抗体m19 (O型口蹄疫病毒结构蛋白的单克隆抗体m19) (antibody, V domains shown)
VH: QVQLQQPGSELVRPGASVNLSCKASGYTFPSYWMHWVKQRPGQGLEWIGNIFPDGGFTNYDENFKSRATLTVDTSSSTAYMQLSSLTSEDSAVYYCTTIYDYVVGVGAMDYWGQGTSVTVSS
VL: DIVMTQSPAIMSASPGEKVTITCSASSSISYMYWFQQKTGTSPKLWIYKTSDLASGVPARFSGSGSGTSYSLTISRMEAEDAATYYCQQRNSYTFGGGTKLELK
In the case of B1, the 最佳使用浓度 (concentration giving OD450 of 1.6) is reported as 7 µg/mL.
